Experimental data reported in article PMC9785488, “EBF1 Negatively Regulates Brassinosteroid-Induced Apical Hook Development and Cell Elongation through Promoting BZR1 Degradation” (International Journal of Molecular Sciences, 2022).

Target: T1, MBP-EBF1 (Arabidopsis thaliana, UniProt Q9SKK0 1-628)
T1 construct: EBF1, Arabidopsis thaliana, AT2G25490; source: purified using amylose resin
T1 sequence (looked up): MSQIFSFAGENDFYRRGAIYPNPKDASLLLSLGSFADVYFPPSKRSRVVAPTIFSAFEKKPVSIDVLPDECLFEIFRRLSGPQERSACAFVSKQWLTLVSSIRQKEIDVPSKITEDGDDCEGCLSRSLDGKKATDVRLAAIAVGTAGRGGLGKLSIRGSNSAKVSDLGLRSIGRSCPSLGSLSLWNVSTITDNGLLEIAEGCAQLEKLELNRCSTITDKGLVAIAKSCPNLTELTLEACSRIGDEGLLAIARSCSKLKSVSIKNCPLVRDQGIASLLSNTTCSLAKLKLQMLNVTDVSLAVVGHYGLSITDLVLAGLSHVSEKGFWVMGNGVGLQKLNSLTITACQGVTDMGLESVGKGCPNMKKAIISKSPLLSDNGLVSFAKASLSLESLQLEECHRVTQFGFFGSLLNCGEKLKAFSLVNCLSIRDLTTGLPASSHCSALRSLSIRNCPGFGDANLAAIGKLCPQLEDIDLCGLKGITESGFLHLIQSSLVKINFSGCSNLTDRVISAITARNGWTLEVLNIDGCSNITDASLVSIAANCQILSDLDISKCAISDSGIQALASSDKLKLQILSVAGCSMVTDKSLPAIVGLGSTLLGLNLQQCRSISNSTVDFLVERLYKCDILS
Test: pull-down; glutathione beads with 1 µg GST-BZR1 incubated with 1 µg MBP or MBP-EBF1; 20 mM Tris-HCl pH 7.5, 100 mM NaCl, 1 mM EDTA; washed 10 times with 300 mM NaCl, 0.5% Triton X-100; immunoblot with anti-MBP
Conditions: both partners purified

- binding result: binds
B1: GST-BZR1 (natural protein, Arabidopsis thaliana, UniProt Q8S307 1-336, looked up)
chain: MTSDGATSTSAAAAAAAAAAARRKPSWRERENNRRRERRRRAVAAKIYTGLRAQGDYNLPKHCDNNEVLKALCVEAGWVVEEDGTTYRKGCKPLPGEIAGTSSRVTPYSSQNQSPLSSAFQSPIPSYQVSPSSSSFPSPSRGEPNNNMSSTFFPFLRNGGIPSSLPSLRISNSCPVTPPVSSPTSKNPKPLPNWESIAKQSMAIAKQSMASFNYPFYAVSAPASPTHRHQFHTPATIPECDESDSSTVDSGHWISFQKFAQQQPFSASMVPTSPTFNLVKPAPQQMSPNTAAFQEIGQSSEFKFENSQVKPWEGERIHDVGMEDLELTLGNGKARG
notes: BZR1, Arabidopsis thaliana, At1G75080; also called glutathione S-transferase (GST) fusion protein GST-BZR1; source: bacteria, purified (glutathione beads)
